Data: IntAct's records for PubMed 21944579

B1: Low-density lipoprotein receptor-related protein 6 (Homo sapiens), O75581 (parent)
chain: MGAVLRSLLACSFCVLLRAAPLLLYANRRDLRLVDATNGKENATIVVGGLEDAAAVDFVFSHGLIYWSDVSEEAIKRTEFNKTESVQNVVVSGLLSPDGLACDWLGEKLYWTDSETNRIEVSNLDGSLRKVLFWQELDQPRAIALDPSSGFMYWTDWGEVPKIERAGMDGSSRFIIINSEIYWPNGLTLDYEEQKLYWADAKLNFIHKSNLDGTNRQAVVKGSLPHPFALTLFEDILYWTDWSTHSILACNKYTGEGLREIHSDIFSPMDIHAFSQQRQPNATNPCGIDNGGCSHLCLMSPVKPFYQCACPTGVKLLENGKTCKDGATELLLLARRTDLRRISLDTPDFTDIVLQLEDIRHAIAIDYDPVEGYIYWTDDEVRAIRRSFIDGSGSQFVVTAQIAHPDGIAVDWVARNLYWTDTGTDRIEVTRLNGTMRKILISEDLEEPRAIVLDPMVGYMYWTDWGEIPKIERAALDGSDRVVLVNTSLGWPNGLALDYDEGKIYWGDAKTDKIEVMNTDGTGRRVLVEDKIPHIFGFTLLGDYVYWTDWQRRSIERVHKRSAEREVIIDQLPDLMGLKATNVHRVIGSNPCAEENGGCSHLCLYRPQGLRCACPIGFELISDMKTCIVPEAFLLFSRRADIRRISLETNNNNVAIPLTGVKEASALDFDVTDNRIYWTDISLKTISRAFMNGSALEHVVEFGLDYPEGMAVDWLGKNLYWADTGTNRIEVSKLDGQHRQVLVWKDLDSPRALALDPAEGFMYWTEWGGKPKIDRAAMDGSERTTLVPNVGRANGLTIDYAKRRLYWTDLDTNLIESSNMLGLNREVIADDLPHPFGLTQYQDYIYWTDWSRRSIERANKTSGQNRTIIQGHLDYVMDILVFHSSRQSGWNECASSNGHCSHLCLAVPVGGFVCGCPAHYSLNADNRTCSAPTTFLLFSQKSAINRMVIDEQQSPDIILPIHSLRNVRAIDYDPLDKQLYWIDSRQNMIRKAQEDGSQGFTVVVSSVPSQNLEIQPYDLSIDIYSRYIYWTCEATNVINVTRLDGRSVGVVLKGEQDRPRAVVVNPEKGYMYFTNLQERSPKIERAALDGTEREVLFFSGLSKPIALALDSRLGKLFWADSDLRRIESSDLSGANRIVLEDSNILQPVGLTVFENWLYWIDKQQQMIEKIDMTGREGRTKVQARIAQLSDIHAVKELNLQEYRQHPCAQDNGGCSHICLVKGDGTTRCSCPMHLVLLQDELSCGEPPTCSPQQFTCFTGEIDCIPVAWRCDGFTECEDHSDELNCPVCSESQFQCASGQCIDGALRCNGDANCQDKSDEKNCEVLCLIDQFRCANGQCIGKHKKCDHNVDCSDKSDELDCYPTEEPAPQATNTVGSVIGVIVTIFVSGTVYFICQRMLCPRMKGDGETMTNDYVVHGPASVPLGYVPHPSSLSGSLPGMSRGKSMISSLSIMGGSSGPPYDRAHVTGASSSSSSSTKGTYFPAILNPPPSPATERSHYTMEFGYSSNSPSTHRSYSYRPYSYRHFAPPTTPCSTDVCDSDYAPSRRMTSVATAKGYTSDLNYDSEPVPPPPTPRSQYLSAEENYESCPPSPYTERSYSHHLYPPPPSPCTDSS
partner: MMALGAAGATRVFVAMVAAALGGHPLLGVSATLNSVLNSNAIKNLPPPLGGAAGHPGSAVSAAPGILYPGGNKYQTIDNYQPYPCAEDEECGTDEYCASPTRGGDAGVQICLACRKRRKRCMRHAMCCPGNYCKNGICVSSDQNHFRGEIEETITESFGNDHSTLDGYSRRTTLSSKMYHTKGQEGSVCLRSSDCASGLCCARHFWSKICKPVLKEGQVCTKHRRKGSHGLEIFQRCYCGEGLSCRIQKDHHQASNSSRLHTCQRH
B2: Sclerostin (Homo sapiens), Q9BQB4 (parent)
chain: MQLPLALCLVCLLVHTAFRVVEGQGWQAFKNDATEIIPELGEYPEPPPELENNKTMNRAENGGRPPHHPFETKDVSEYSCRELHFTRYVTDGPCRSAKPVTELVCSGQCGPARLLPNAIGRGKWWRPSGPDFRCIPDRYRAQRVQLLCPGGEAPRARKVRLVASCKCKRLTRFHNQSELKDFGTEAARPQKGRKPRPRARSAKANQAELENAY
B3: Dickkopf-related protein 1 (Homo sapiens), O94907 (parent)
chain: B1 partner
B4: Low-density lipoprotein receptor-related protein 6 (Homo sapiens), O75581 (parent)
chain: B1 chain

Variants of: B1
Conditions: with dkk1_human DKK1, O94907

Row | Variant | effect of a mutation on the interaction
1 | R141M | disrupting interaction
2 | A201V | disrupting interaction
3 | N185S | disrupting interaction
4 | A229T | disrupting interaction
5 | D98Y | disrupting interaction

Variants of: B2
Conditions: with lrp6_human LRP6, O75581

Row | Variant | effect of a mutation on the interaction
6 | I119E | decreasing interaction
7 | N117A | decreasing interaction

Variants of: B3
Conditions: with lrp6_human LRP6, O75581

Row | Variant | effect of a mutation on the interaction
8 | I42E | disrupting interaction
9 | N40A | decreasing interaction

Variants of: B3
Conditions: with lrp6_human LRP6, O75581
Remark: another data set of the same source

Row | Variant | effect of a mutation on the interaction
10 | K211E | disrupting interaction
11 | H204E | disrupting interaction

Variants of: B4
Conditions: with sost_human SOST

Row | Variant | effect of a mutation on the interaction
12 | R141M | disrupting interaction
13 | A201V | disrupting interaction
14 | A229T | disrupting interaction
15 | N185S | disrupting interaction
16 | D98Y | disrupting interaction
